Target: human C3b (UniProt P01024 23-667; P01024 749-1663)
Assay: SPR

human C3b, sequence (P01024 other isoform, or with tags, fused parts or gaps, chain 1 of 2): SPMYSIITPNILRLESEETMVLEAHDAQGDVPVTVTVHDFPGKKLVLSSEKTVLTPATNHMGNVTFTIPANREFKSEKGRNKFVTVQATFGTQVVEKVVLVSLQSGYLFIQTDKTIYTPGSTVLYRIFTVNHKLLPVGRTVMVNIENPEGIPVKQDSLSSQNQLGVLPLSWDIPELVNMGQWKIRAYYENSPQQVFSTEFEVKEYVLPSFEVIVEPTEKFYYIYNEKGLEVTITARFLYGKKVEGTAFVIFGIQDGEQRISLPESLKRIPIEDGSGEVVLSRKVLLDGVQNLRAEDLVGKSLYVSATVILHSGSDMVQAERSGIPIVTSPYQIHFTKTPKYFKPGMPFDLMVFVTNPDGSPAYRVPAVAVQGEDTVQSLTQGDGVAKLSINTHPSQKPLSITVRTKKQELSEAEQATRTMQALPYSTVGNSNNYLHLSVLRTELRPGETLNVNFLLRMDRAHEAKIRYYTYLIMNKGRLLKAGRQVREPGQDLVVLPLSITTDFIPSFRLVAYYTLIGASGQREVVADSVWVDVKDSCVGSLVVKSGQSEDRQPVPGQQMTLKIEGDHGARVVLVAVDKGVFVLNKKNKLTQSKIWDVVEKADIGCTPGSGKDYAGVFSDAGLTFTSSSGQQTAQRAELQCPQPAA
human C3b, sequence (P01024 other isoform, or with tags, fused parts or gaps, chain 2 of 2): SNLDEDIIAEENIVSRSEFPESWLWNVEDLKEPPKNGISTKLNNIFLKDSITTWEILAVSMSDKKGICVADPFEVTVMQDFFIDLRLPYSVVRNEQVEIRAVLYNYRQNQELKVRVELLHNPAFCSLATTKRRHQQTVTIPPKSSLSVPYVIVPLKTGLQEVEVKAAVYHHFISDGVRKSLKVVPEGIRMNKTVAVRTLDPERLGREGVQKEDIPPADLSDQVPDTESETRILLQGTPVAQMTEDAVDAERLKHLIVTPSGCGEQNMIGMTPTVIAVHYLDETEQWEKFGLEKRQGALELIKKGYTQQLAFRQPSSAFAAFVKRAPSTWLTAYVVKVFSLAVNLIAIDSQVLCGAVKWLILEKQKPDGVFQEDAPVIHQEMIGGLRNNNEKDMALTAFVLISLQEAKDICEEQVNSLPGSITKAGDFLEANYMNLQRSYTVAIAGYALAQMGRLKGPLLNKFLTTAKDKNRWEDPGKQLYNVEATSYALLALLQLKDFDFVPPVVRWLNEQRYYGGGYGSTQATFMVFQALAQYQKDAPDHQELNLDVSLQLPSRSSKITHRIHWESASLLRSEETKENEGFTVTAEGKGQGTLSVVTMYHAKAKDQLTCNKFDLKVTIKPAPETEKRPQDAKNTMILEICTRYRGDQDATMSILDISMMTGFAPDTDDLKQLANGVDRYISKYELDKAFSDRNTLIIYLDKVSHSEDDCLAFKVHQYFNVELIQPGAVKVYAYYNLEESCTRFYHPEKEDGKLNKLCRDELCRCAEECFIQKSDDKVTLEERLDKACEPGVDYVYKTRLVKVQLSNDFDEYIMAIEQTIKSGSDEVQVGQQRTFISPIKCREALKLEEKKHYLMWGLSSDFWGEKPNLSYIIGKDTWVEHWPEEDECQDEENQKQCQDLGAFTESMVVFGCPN

Kd: 6.47 nM
B1: antibody YW144.2.43.S77 Fab fragment (Fab, V domains shown)
VH: EVQLVESGGGLVQPGGSLRLSCAASGFSFTSSSVSWVRQAPGKGLEWVGLIYPYNGFNYYADSVKGRFTISADTSKNTAYLQMNSLRAEDTAVYYCARNALYGSGGYYAMDYWGQGTLVTVSS
VL: DIQMTQSPSSLSASVGDRVTITCRASQDVSTAVAWYQQKPGKAPKLLIYSASFLYSGVPSRFSGSGSGTDFTLTISSLQPEDFATYYCQQSYATLPTFEQGTKVEIK

Source: patent US20090081211A1 (published 2009)
